Measured values from the supplement of paper PMC10567573.

Assay: protein stability index of a GFP-peptide fusion (GPS, HEK-293T) (PSI 1-6); higher = more stable
Conditions: c terminus: a fixed tail appended
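Also: lentivirally expressed fusions sorted by FACS into six bins by GFP to DsRed ratio, PSI derived from sequencing read proportions per bin multiplied by bin number.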

## ITEEKVCMVCKKKIGNSAFARYPN
parent: IOH40537_140
  protein stability index: 2.44

## QSSHYLQWILDKQDLLKERQKDLK [CCNC WT]
parent: IOH40631_2
  protein stability index: 3.21

## YKSFSKEQQTMDNLEKQLICPICL
parent: IOH40604_2
  protein stability index: 2.08

## PTCPVCKDRASPADLRTNHTLNNL
parent: IOH40792_10
  protein stability index: 2.83

## ICPICLEMFTKPVVILPCQHNLCR
parent: IOH40604_5
  protein stability index: 2.21

## TGEFLKLPFERLAFVLSSNSLKHC
parent: IOH40892_39
  protein stability index: 2.65

## VVAYLALAALSATISFRIYKSVLQ [RTN1 WT]
parent: IOH40898_10
  protein stability index: 3.02

## TPAKSLDKFIEDYLLPDTCFRMQI
parent: IOH41283_2
  protein stability index: 2.79

## FPKSEQVYLHFLSVVTEDGPEPKD
parent: IOH40635_35
  protein stability index: 2.15

## PRYREDPCKQCKKKYVKGDVSLCR
parent: IOH41760_105
  protein stability index: 2.57

## WCLVQICEKYLPGYYSEKLEAIQL [TBC1D10A WT]
parent: IOH41348_37
  protein stability index: 2.8

## YANGGLNYSYRGYGALSSNLQPPA [C20orf112 WT]
parent: IOH40687_56
  protein stability index: 2.06

## FQASNPYLPTRGGTTMASGGRFRC
parent: IOH40604_10
  protein stability index: 1.74

## QKKDCVPLMKPHRPWADTCSSSGK
parent: IOH40237_6
  protein stability index: 3.2

## HSGEKPFICKECGKAYGWCSELIR
parent: IOH40635_69
  protein stability index: 2.02

## FSFKVSRWMGLACFRSLAASSPSI [CCDC70 WT]
parent: IOH40382_3
  protein stability index: 2.79

## LTLVFFVQITGQPNILFYASTVLK
parent: IOH40813_48
  protein stability index: 2.98

## EQIAERKRKMVSWEASSLGLVTAA [MLL5 WT]
parent: IOH39874_95
  protein stability index: 2.83

## FTGSQPTAERITQLSAPHCKKLSL
parent: IOH41048_39
  protein stability index: 2.08

## GVSKVGLRKIIDFIYTAKLSLNMD
parent: IOH40892_24
  protein stability index: 2.67

## LQLGEGVEFDVLPAFDALGQLTGG
parent: IOH41283_24
  protein stability index: 1.9

## LYLQLAICSSLQNLEKTIFCLQKL
parent: IOH40091_23
  protein stability index: 2.99

## YLPTRGGTTMASGGRFRCPSCRHE
parent: IOH40604_11
  protein stability index: 1.83

## KLAEAYLNLGPALSAALASSQKQH
parent: IOH40091_29
  protein stability index: 2.78

## QQVKCIITEEKVCMVCKKKIGNSA
parent: IOH40537_139
  protein stability index: 2.82

## HVPNPPSGISFPSVVDHPMPEERA
parent: IOH40237_11
  protein stability index: 2.54

## RVAKKLQSGLVWTNCWLIRELNLP
parent: IOH41048_73
  protein stability index: 2.99

## CLLGLGSLVLILSLSYTVLIVGRI
parent: IOH40813_20
  protein stability index: 3.34

## YNENVYTEDGKLDIWSKSNYQVFQ [MED27 WT]
parent: IOH39902_37
  protein stability index: 2.11

## WIHRPGCRCKNSNTVYCKLESCPS [SPRY1 WT]
parent: IOH39997_49
  protein stability index: 2.19

## RFLRMLLRLADEFGVAVVITNQVV
parent: IOH41191_42
  protein stability index: 2.39

## INRADYCPECYPDNPANRSLVLPW [IFRG15 WT]
parent: IOH41552_8
  protein stability index: 2.18

## LTVYAWERGSMKTHFNTAQGFRTV
parent: IOH41283_40
  protein stability index: 2.27

## DKELLCCSCQADPRHQGHRVQPVK
parent: IOH40792_20
  protein stability index: 3.56

## FQMEKIEHGYENMNHFTVNLNREE
parent: IOH40604_50
  protein stability index: 2.79

## WSSRSPQERSRVLNQVADLLEQSL
parent: IOH41048_11
  protein stability index: 2.54

## FSPNSPQFNVSGPGLLEEDNQWMT
parent: IOH40093_33
  protein stability index: 2.95

## GKAYGWCSELIRHRRVHARKEPSH
parent: IOH40635_71
  protein stability index: 2.85

## TIRLRPRQVLCEKCKSTLSPPEAS [PWWP2B WT]
parent: IOH40143_16
  protein stability index: 3.06

## LRLENNHCHIEESEHVLKKAHKYS
parent: IOH40537_79
  protein stability index: 2.32

## RTHTGEQPYTCSICRRNFSRRSSL [ZNF75A WT]
parent: IOH41486_45
  protein stability index: 2.88

## ENKPSTCSFSIERILGLDQKKDCV
parent: IOH40237_3
  protein stability index: 3.12

## YIKVDWQRVEKDMKKAKEQLKIRK [FUNDC2 WT]
parent: IOH40818_22
  protein stability index: 1.68

## YIGTHEYPHFSHRPSTLQAASTPQ
parent: IOH41283_62
  protein stability index: 1.94

## EDLTAKRKRMKMDKTCSKTKNKSK [FAM9B WT]
parent: IOH41618_11
  protein stability index: 4.96

## WEVQVSPTCPVCKDRASPADLRTN
parent: IOH40792_9
  protein stability index: 2.54

## APKKELINIKGISEAKADKILAEA
parent: IOH41191_10
  protein stability index: 4.71

## TTLLKCYLHTNVALVAPLLRLENN
parent: IOH40537_76
  protein stability index: 3.28

## YCAKLCEPQWFYEETESSDDVEVL
parent: IOH40091_6
  protein stability index: 2.25

## SKYENYFSASERLSLKRELSWYRG
parent: IOH40237_15
  protein stability index: 1.92

## ASSVESTLPVLEASSWKKQVSHDF
parent: IOH41760_90
  protein stability index: 3

## NLDTEELCEYFSQHLGEYENVLAA
parent: IOH40093_14
  protein stability index: 2.41

## TRIMIGLTLVFFVQITGQPNILFY
parent: IOH40813_47
  protein stability index: 3.31
